How the values were obtained:
[1] = target: UGT1A4 (UDP-glucuronosyltransferase 1A4) (Homo sapiens, UniProt P22310); assay: (§1) Binding affinity against human UDP Glucuronosyltransferase 1A4 (UGT1A4); conditions: read-out: Km,app
[2] = substrate: [H][C@@]12CC[C@]3([H])[C@]([H])(CC[C@@]4(C)[C@@]3([H])CC[C@]4([H])[C@H](C)O)[C@@]1(C)CC[C@H](O)C2; assay: as §1
[3] = substrate: Nc1ccccc1-c1ccccc1; assay: as §1
[4] = substrate: Clc1ccc2c(c1)N=C(N1CCNCC1)c1ccccc1N2; assay: as §1
[5] = substrate: CN1CCC(=C2c3ccccc3C=Cc3ccccc32)CC1; assay: as §1
[6] = substrate: CN1CCN(C2=Nc3ccccc3Oc3ccc(Cl)cc32)CC1; assay: as §1
[7] = substrate: CC1CC[C@H](C(C)C)[C@@H](O)C1; assay: as §1
[8] = substrate: C[C@@H]1CC[C@@]2(OC1)O[C@H]1C[C@H]3[C@@H]4CC[C@H]5C[C@@H](O)CC[C@]5(C)[C@H]4CC[C@]3(C)[C@H]1[C@@H]2C; assay: as §1
[9] = substrate: O=c1c(-c2ccc(O)cc2)coc2cc(O)ccc12; assay: as §1
[10] = substrate: CC1(C)[C@H]2CC[C@]1(C)[C@H](O)C2; assay: as §1
[11] = substrate: CN1CCN(C2=Nc3cc(Cl)ccc3Nc3ccccc32)CC1; assay: as §1
[12] = substrate: C=CCc1ccc(O)c(OC)c1; assay: as §1
[13] = substrate: CCOC(=O)Nc1ccc(NCc2ccc(F)cc2)cc1N; assay: as §1
[14] = substrate: Cc1ccc(C(C)C)cc1O; assay: as §1
[15] = substrate: CN(C)CCC=C1c2ccccc2CCc2ccccc21; assay: as §1
[16] = substrate: C[C@@H]1CC[C@@]2(OC1)O[C@H]1C[C@H]3[C@@H]4CC=C5C[C@@H](O)CC[C@]5(C)[C@H]4CC[C@]3(C)[C@H]1[C@@H]2C; assay: as §1
[17] = substrate: CN(C)CCCN1c2ccccc2CCc2ccccc21; assay: as §1
[18] = substrate: Nc1ccc(-c2ccccc2)cc1; assay: as §1
[19] = substrate: CN1CCC(=C2c3ccccc3CC(=O)c3sccc32)CC1; assay: as §1
[20] = substrate: [H][C@@]12CC[C@]3([H])[C@]([H])(CC[C@]4(C)C(C)(O)CC[C@@]34[H])[C@@]1(C)CCC(O)C2; assay: as §1
[21] = substrate: c1ccc(Nc2ccccc2)cc1; assay: as §1
[22] = substrate: C[C@@H]1CC[C@@]2(OC1)O[C@H]1C[C@H]3[C@@H]4CC[C@@]5(C)C[C@@H](O)CC[C@]5(C)[C@H]4CC(=O)[C@]3(C)[C@H]1[C@@H]2C; assay: as §1
[23] = substrate: Nc1ccc(-c2ccc(N)cc2)cc1; assay: as §1
[24] = substrate: O=[N+]([O-])c1ccc(O)cc1; assay: as §1

`CN(C)CCCN1c2ccccc2Sc2ccc(Cl)cc21` [CHLORPROMAZINE] was tested, and the Km [1] was 93 µM.

B1: UDP-glucuronosyltransferase 1A4 (Homo sapiens) (protein)
chain: MARGLQVPLPRLATGLLLLLSVQPWAESGKVLVVPTDGSPWLSMREALRELHARGHQAVVLTPEVNMHIKEEKFFTLTAYAVPWTQKEFDRVTLGYTQGFFETEHLLKRYSRSMAIMNNVSLALHRCCVELLHNEALIRHLNATSFDVVLTDPVNLCGAVLAKYLSIPAVFFWRYIPCDLDFKGTQCPNPSSYIPKLLTTNSDHMTFLQRVKNMLYPLALSYICHTFSAPYASLASELFQREVSVVDLVSYASVWLFRGDFVMDYPRPIMPNMVFIGGINCANGKPLSQEFEAYINASGEHGIVVFSLGSMVSEIPEKKAMAIADALGKIPQTVLWRYTGTRPSNLANNTILVKWLPQNDLLGHPMTRAFITHAGSHGVYESICNGVPMVMMPLFGDQMDNAKRMETKGAGVTLNVLEMTSEDLENALKAVINDKSYKENIMRLSSLHKDRPVEPLDLAVFWVEFVMRHKGAPHLRPAAHDLTWYQYHSLDVIGFLLAVVLTVAFITFKCCAYGYRKCLGKKGRVKKAHKSKTH
B1 was tested, and the Km [2] was 7.3 µM, the Km [3] was 47 µM and the Km [4] was 56 µM. The Km [5] was 150 µM, the Km [6] was 27 µM and the Km [7] was 470 µM. The Km [8] was 7 µM, the Km [9] was 400 µM and the Km [10] was 1100 µM. It also gave a Km [11] of 62 µM, a Km [12] of 1570 µM and a Km [13] of 322 µM. It also gave a Km [14] of 1500 µM, a Km [15] of 60 µM and a Km [16] of 13 µM. It also gave a Km [17] of 310 µM, a Km [18] of 66 µM and a Km [19] of 70 µM. For the same molecule, the Km [20] was 16 µM, the Km [21] was 240 µM and the Km [22] was 18 µM. For the same molecule, the Km [23] was 460 µM and the Km [24] was 11.6 mM.

From ChEMBL document CHEMBL1136774, “Pharmacophore and quantitative structure-activity relationship modeling: complementary approaches for the rationalization and prediction of UDP-glucuronosyltransferase 1A4 substrate selectivity” (J Med Chem, 2003)
